Results as given in patent publication US8252521B2, “Method of screening substance useful in treating disease with the use of GPR40 and phospholipase” (Eisai R&D Management Co., Ltd., priority 2005, dated 2012).

T1: human GPR43 (Homo sapiens, UniProt O15552)
T1 construct: expressed in transfected cells; host or cells: SE302 cells (HEK293 clone carrying a CRE4-VIP promoter PLAP reporter), infected with retrovirus made from pBabeCL(GPR43)IH and selected with hygromycin
T1 sequence (O15552 1-330): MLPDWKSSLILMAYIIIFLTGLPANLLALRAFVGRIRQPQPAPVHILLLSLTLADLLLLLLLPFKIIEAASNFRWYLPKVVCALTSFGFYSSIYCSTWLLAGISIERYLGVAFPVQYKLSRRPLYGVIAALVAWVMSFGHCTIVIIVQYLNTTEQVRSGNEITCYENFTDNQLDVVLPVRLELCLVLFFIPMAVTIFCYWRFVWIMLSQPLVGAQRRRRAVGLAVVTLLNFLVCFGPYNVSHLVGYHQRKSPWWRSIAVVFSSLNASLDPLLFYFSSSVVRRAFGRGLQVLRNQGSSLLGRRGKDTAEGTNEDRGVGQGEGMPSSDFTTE


Columns and labels:
Format in all cases: cell-based
Settings in all cases: forskolin 0.3 μM, 24 hours with sample
human GPR40 = target: T2, human GPR40 (Homo sapiens, UniProt O14842); assay: PLAP reporter transcription activity in GPR40-SE302 cells
T2 construct: expressed in transfected cells; host or cells: SE302 cells (HEK293 clone carrying a CRE4-VIP promoter PLAP reporter), infected with retrovirus made from pBabeCL(GPR40)IH and selected with hygromycin
T2 sequence (O14842 whole entry): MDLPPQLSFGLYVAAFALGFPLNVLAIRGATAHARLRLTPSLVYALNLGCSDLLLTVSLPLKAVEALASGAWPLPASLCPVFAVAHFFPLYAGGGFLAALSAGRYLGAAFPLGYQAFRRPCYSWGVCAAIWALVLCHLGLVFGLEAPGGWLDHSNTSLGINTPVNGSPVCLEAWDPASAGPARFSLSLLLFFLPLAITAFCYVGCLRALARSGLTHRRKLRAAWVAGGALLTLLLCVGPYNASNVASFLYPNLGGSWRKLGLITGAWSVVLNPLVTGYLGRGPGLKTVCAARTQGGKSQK
Procedure: (§1) The GPR40-SE302 cells and GPR43-SE302 cells constructed in Examples 6 and 7 described above were suspended in a culture medium for measurement of transcription activity (DMEM containing FBS, which was heat-treated at 65° C. for 30 min, at a final concentration of 10%) and seeded onto a 96 well plate (Becton Dickinson, Co.) at 1×10^4 cells/well. In addition, as control cells, SE302 cells expressing green fluorescent protein (GFP, Invitrogen Corporation) (referred to as “GFP-SE302 cells” hereinafter) were used. Specifically, GFP-302 cells were prepared by obtaining a virus for expressing GFP using the method shown in Example 3 and 4, and transfecting SE302 cells with the virus using the method shown in Example 6. Cells were cultured for 24 hours after seeding, and forskolin prepared at a final concentration of 0.3 μM and a sample were added. Cells were cultured for another 24 hours, and 5 μL of the cell supernatant was recovered and transferred to a polypropylene 384-well white plate (Nalge Nunc International, Co.). Then, 20 μL of the assay buffer (280 mmol/L Na2CO3—NaHCO3, 8 mmol/L MgSO4, pH 10) and 25 μL of Lumiphos530 (Lumigen, Co.) were added. Following a 2-hour reaction at room temperature, chemiluminescence in each well was measured using a Fusion plate reader (Perkin Elmer, Co.) and was defined as the transcription activity. Based on these measured levels, stimulation/inhibition of transcription activity was calculated using the equation (I) shown below and described as [% of control]. Activities of the group with a sample added were calculated using the level of a control placed on each plate. [% of control]=(X−C)/(F−C)×100 (I) wherein,
(§2) X: PLAP transcription activity in the group added with a sample,
(§3) F: Mean level of transcription activity in 2 wells of a positive control (no sample added, stimulated with forskolin), and
(§4) C: Mean level of transcription activity in 2 wells of a negative control (no sample added, not stimulated with forskolin).

human GPR43 = target: T1, human GPR43; assay: PLAP reporter transcription activity in GPR43-SE302 cells
Procedure: as §1, §2, §3, §4

GFP-SE302 cells = assay: PLAP reporter transcription activity in GFP-SE302 control cells
Procedure: as §1, §2, §3, §4

| Molecule | PLAP activity in GPR40-SE302 cells (human GPR40) | PLAP activity in GPR43-SE302 cells (human GPR43) | PLAP activity in GFP-SE302 cells (GFP-SE302 cells) |
| --- | --- | --- | --- |
| porcine pancreatic sPLA2: Phospholipase A2 from porcine pancreas, Sigma; primarily Group IB secretory phospholipase A2 (Swiss Prot P00592) | concentration dependent elevation of PLAP activity | no elevation of PLAP activity | no elevation of PLAP activity |
| mGX-sPLA2-His: purified mouse C-terminal His-tagged Group X secretory phospholipase A2, expressed in Sf9 cells (protein, UniProt Q9QXX3 29-151, looked up, C-terminal His6 tag, purified mouse C-terminal His-tagged Group X secretory phospholipase A2, expressed in Sf9 cells) Group 10 secretory …: GLLELAGTLDCVGPRSPMAYMNYGCYCGLGGHGEPRDAIDWCCYHHDCCYSRAQDAGCSPKLDRYPWKCMDHHILCGPAENKCQELLCRCDEELAYCLAGTEYHLKYLFFPSILCEKDSPKCN | concentration dependent elevations of PLAP activity | – | no specific elevation of PLAP activity |
| C-terminal FLAG tagged mGX-sPLA2: C-terminal FLAG-tagged mouse GX-sPLA2 (SEQ ID NO: 43), purified from Sf-9 culture supernatant (protein, listed as Mus musculus, C-terminal FLAG tag) MLLLLLLLLLGPGPGFSEATRRSHVYKRGLLELAGTLDCVGPRSPMAYMNYGCYCGLGGHGEPRDAIDWCCYHHDCCYSRAQDAGCSPKLDRYPWKCMDHHILCGPAENKCQELLCRCDEELAYCLAGTEYHLKYLFFPSILCEKDSPKCNDYKDDDDK | concentration-dependent elevation of PLAP activity | no elevation of PLAP activity | no elevation of PLAP activity |
| hGX-sPLA2-His: purified human C-terminal His-tagged Group X secretory phospholipase A2, expressed in Sf9 cells (protein, UniProt O15496 43-165, looked up, C-terminal His6 tag, purified human C-terminal His-tagged Group X secretory phospholipase A2, expressed in Sf9 cells) Group 10 secretory …: GILELAGTVGCVGPRTPIAYMKYGCFCGLGGHGQPRDAIDWCCHGHDCCYTRAEEAGCSPKTERYSWQCVNQSVLCGPAENKCQELLCKCDQEIANCLAQTEYNLKYLFYPQFLCEPDSPKCD | concentration dependent elevations of PLAP activity | – | no specific elevation of PLAP activity |
| C-terminal FLAG tagged hGX-sPLA2: C-terminal FLAG-tagged human GX-sPLA2 (SEQ ID NO: 41), purified from silkworm pupa extract (protein, listed as Homo sapiens, C-terminal FLAG tag) MGPLPVCLPIMLLLLLPSLLLLLLLPGPGSGEASRILRVHRRGILELAGTVGCVGPRTPIAYMKYGCFCGLGGHGQPRDAIDWCCHGHDCCYTRAEEAGCSPKTERYSWQCVNQSVLCGPAENKCQELLCKCDQEIANCLAQTEYNLKYLFYPQFLCEPDSPKCDDYKDDDDK | concentration-dependent elevation of PLAP activity | no elevation of PLAP activity | no elevation of PLAP activity |
